Laboratory results taken from patent US20190169308A1 (ALLIGATOR BIOSCIENCE, published 2019).

T1: mouse 5T4 on transfected cells (mouse, UniProt Q9Z0L0 32-426)
T1 construct: whole, on cells; also called murine 5T4
T1 sequence (looked up): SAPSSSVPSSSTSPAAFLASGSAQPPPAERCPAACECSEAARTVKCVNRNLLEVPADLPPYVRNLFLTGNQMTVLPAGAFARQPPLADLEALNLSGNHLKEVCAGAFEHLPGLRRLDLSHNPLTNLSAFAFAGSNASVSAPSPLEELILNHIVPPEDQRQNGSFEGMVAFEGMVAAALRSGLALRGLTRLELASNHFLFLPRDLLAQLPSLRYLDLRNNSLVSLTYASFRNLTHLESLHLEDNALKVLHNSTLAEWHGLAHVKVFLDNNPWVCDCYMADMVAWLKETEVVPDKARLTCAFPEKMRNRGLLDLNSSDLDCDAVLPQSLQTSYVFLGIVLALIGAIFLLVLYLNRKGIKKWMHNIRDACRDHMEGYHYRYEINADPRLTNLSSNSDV

T2: 5T4-Fc (human, UniProt Q13641 32-355, limits assumed)
T2 construct: obtained from Peter L. Stern, University of Manchester; also called h5T4-Fc; recombinant 5T4
T2 sequence (looked up): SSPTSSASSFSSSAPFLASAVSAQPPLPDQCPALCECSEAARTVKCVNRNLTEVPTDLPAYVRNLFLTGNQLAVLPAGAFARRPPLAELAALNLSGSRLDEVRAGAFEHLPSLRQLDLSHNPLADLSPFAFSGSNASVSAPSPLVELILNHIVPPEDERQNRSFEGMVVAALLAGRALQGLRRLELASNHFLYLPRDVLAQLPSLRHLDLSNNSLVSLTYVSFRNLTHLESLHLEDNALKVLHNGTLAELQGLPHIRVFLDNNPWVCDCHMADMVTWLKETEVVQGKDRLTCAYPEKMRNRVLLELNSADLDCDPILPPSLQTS

T3: 5T4 (SPR antigen) (UniProt Q13641 32-355, limits assumed, biotinylated on the MASS-1 platform)
T3 construct: also called biotinylated 5T4
T3 sequence (looked up): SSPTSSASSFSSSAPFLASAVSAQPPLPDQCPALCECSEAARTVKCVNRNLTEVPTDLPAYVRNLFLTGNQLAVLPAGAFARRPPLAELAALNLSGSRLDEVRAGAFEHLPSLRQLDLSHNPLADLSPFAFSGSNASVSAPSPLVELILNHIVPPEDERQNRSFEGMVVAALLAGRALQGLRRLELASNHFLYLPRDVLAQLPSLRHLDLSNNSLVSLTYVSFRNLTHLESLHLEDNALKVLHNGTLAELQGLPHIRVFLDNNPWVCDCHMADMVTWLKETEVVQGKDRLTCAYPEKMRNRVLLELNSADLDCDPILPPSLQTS

T4: cynomolgus 5T4 on transfected CHO cells (Macaca mulatta (cynomolgus), UniProt F7CT46 35-420)
T4 construct: also called cyno5T4; cy5T4
T4 sequence: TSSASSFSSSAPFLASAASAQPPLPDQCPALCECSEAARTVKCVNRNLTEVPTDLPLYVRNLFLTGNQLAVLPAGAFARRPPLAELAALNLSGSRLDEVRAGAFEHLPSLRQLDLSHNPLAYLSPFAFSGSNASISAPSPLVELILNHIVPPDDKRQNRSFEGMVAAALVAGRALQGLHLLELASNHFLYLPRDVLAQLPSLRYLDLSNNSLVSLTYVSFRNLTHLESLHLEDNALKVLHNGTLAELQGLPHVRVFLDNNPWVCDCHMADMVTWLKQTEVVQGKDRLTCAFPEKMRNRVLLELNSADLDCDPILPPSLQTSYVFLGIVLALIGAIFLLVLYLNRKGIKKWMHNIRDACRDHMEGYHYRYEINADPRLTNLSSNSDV

T5: human 5T4 on transfected cells (human, UniProt Q13641 32-420)
T5 construct: whole, on cells; also called B16-5T4; CHOh5T4
T5 sequence (looked up): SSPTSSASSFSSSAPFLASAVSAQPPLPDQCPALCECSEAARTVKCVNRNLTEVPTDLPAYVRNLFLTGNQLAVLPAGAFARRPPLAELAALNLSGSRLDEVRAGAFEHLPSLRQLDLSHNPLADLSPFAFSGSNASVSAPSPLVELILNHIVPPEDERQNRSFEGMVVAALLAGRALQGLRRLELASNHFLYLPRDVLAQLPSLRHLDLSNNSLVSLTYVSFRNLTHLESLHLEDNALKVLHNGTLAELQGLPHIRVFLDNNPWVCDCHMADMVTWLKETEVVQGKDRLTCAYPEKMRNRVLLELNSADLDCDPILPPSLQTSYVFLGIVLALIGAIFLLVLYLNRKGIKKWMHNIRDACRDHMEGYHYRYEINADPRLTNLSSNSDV


Columns and labels:
[1] = target: T6, human/mouse 5T4 chimera E3; test: flow cytometry, cells with human/mouse 5T4 chimera
T6 construct: on transfected CHO cells
Protocol: (§1) Epitope mapping was performed by investigation of loss of binding by the antibodies using a panel of human/mouse chimeric 5T4 constructs by flow cytometry. […] Two strategies were used for the epitope mapping as illustrated in FIG. 5. In one approach, seven human/mouse 5T4 chimeras were constructed based on dividing 5T4 into seven different domains (FIG. 5). By replacing each domain with the corresponding mouse sequence seven human/mouse 7 5T4 human/mouse chimeras were generated. The chimeras were generated using the human protein 5T4 sequence NP_006661.1 (reference mRNA sequence NM_006670.4) and the corresponding mouse sequence NP_035757.2 (reference mRNA sequence NM_011627.4). The human/mouse chimeric DNA constructs, as well as human and mouse wild-type 5T4, were cloned into pcDNA3.1 expression vectors. […] As controls human 5T4 and mouse 5T4-transfected cells were used. For flow cytometric analysis, cells were stained with different 5T4 antibodies diluted in FACS buffer (PBS, 0.5% BSA). […] Samples were analysed by FACSverse (BD Biosciences, Heidelberg, Germany) and % positive cells were determined. To compensate for variations in % 5T4 positive cells in the various transfected populations, binding levels were normalized within each chimera by dividing % positive cells for each clone with % positive cells for the clones resulting in the highest % positive cells (% pos cellscloneX/% positive cellsₘₐₓ). A normalized value ≤0.75 was defined as mAb binding being dependent on the replaced region, whereas a normalized value ≤0.25 was defined as complete dependence.

[2] = target: T7, human/mouse 5T4 chimera E2; test: flow cytometry, cells with human/mouse 5T4 chimera
T7 construct: on transfected CHO cells
Protocol: as §1

[3] = target: T8, human/mouse 5T4 chimera E5; test: flow cytometry, cells with human/mouse 5T4 chimera
T8 construct: on transfected CHO cells
Protocol: as §1

[4] = target: T9, human/mouse 5T4 chimera E1; test: flow cytometry, cells with human/mouse 5T4 chimera
T9 construct: on transfected CHO cells
Protocol: as §1

[5] = target: T10, human/mouse 5T4 chimera E6; test: flow cytometry, cells with human/mouse 5T4 chimera
T10 construct: on transfected CHO cells
Protocol: as §1

[6] = target: T11, human/mouse 5T4 chimera E7; test: flow cytometry, cells with human/mouse 5T4 chimera
T11 construct: on transfected CHO cells
Protocol: as §1

[7] = target: T12, human/mouse 5T4 chimera E4; test: flow cytometry, cells with human/mouse 5T4 chimera
T12 construct: on transfected CHO cells
Protocol: as §1

[8] = target: T1, mouse 5T4 on transfected cells; test: flow cytometry, mouse 5T4-transfected cells
[9] = target: T2, 5T4-Fc; test: ELISA, coated 5T4-Fc
Protocol: ELISA was performed using a standard protocol. Plates (#655074, Greiner Bio-One GmbH, Germany) were pre-coated with 0.5 μg/ml 5T4-Fc (obtained from Peter L. Stern, University of Manchester) overnight. 5T4 antibodies were diluted from 6 to 1.5×10⁻³ μg/ml in 1:4 dilutions and added in duplicates of 50 μl to each well. Binding was detected with rabbit anti-h kappa L-chain-HRP (P0129, Dako Denmark) and the ELISA was developed with SuperSignal ELISA PICO Chemiluminescent substrate (Thermo Scientific Pierce, Rockford, Ill. USA) for 2-10 minutes and read in an automated microplate based multi-detection reader (FLUOstar OPTIMA, Netherlands).

[10] = target: T3, 5T4 (SPR antigen); test: SPR Biacore 3000, amine-coupled 5T4, mAb injected (bivalent)
Protocol: Binding kinetics of the 5T4-specific mAbs have been studied using two different SPR-based platforms, the Biacore 3000 (GE Healthcare) and the MASS-1 platform (Sierra Sensors). Briefly, 5T4 was captured at the sensor chip surface either via direct amine coupling (Biacore platform) or using a streptavidin coated chip and biotinylated 5T4 (MASS-1 platform). The different 5T4-specific mAbs were then injected over the chip in increasing concentrations and the association and dissociation rates studied in real time. A 1:1 Langmuir model was used for curve fitting.

[11] = target: T4, cynomolgus 5T4 on transfected CHO cells; test: flow cytometry, 5T4-transfected CHO cells
Protocol: (§2) The potency of 5T4 antibodies in binding to cynomolgus 5T4 was determined by flow cytometry. CHO cells were stably transfected with […] (cynomolgus) 5T4. […] Samples were analysed either on a FACSCalibur or a FACSverse (BD Biosciences, Heidelberg, Germany) and mean fluorescence intensity (MFI) determined. […] To compare the EC50 values between human and cynomolgus 5T4, the cy5T4/hu5T4 ratio was calculated from the experiment with the full dose-response.

[12] = target: T5, human 5T4 on transfected cells; test: flow cytometry, 5T4-transfected B16 cells
[13] = target: T4, cynomolgus 5T4 on transfected CHO cells; test: flow cytometry, cynomolgus 5T4-transfected CHO cells
Protocol: as §2

[14] = target: T2, 5T4-Fc; test: dual ELISA: coated 5T4-Fc, detection with CD137-bio
Protocol: Bispecific binding to both targets, CD137 and 5T4, was evaluated using a standard ELISA protocol. Plates (#655074, Greiner Bio-One GmbH, Germany) were pre-coated with 0.5 μg/ml 5T4-Fc (obtained from Professor Peter Stern, University of Manchester) overnight. CD137-5T4 bsAb were diluted from 8 to 2×10⁻³ μg/ml in 1:4 dilutions and added in duplicates of 50 μl to each well. CD137-bio (Ancell #502-030) was used as detection antibody at 0.5 μg/ml and the binding was detected with Streptavidin-HRP (Pierce #21126). The ELISA was developed with SuperSignal ELISA PICO Chemiluminescent substrate (Thermo Scientific Pierce, Rockford, Ill. USA) during 2-10 minutes and read in an automated microplate based multi-detection reader (FLUOstar OPTIMA, Netherlands).

Row | normalized % positive cells [1] | normalized % positive cells [2] | normalized % positive cells [3] | normalized % positive cells [4] | normalized % positive cells [5] | normalized % positive cells [6] | normalized % positive cells [7] | binding result [8] | EC50 [9] [nM] | kon [10] [M⁻¹ s⁻¹] | Ratio EC50cyno5T4/h5T4 [11] | EC50 [12] [nM] | EC50 [13] [nM] | EC50 [14] [nM] | Binder
1 | 0.93 | 0.9 | 0.84 | 0.89 | 0.03 | 0.88 | 1 | no binding | 0.56 | 450000 | 140 | 1.4 | 30.7 |  | 1212/1213 (antibody, V domains shown) VH: EVQLLESGGGLVQPGGSLRLSCAASGFTFSSYAMSWVRQAPGKGLEWVSYISSYGGYTSYADSVKGRFTISRDNSKNTLYLQMNSLRAEDTAVYYCARYHSGVLDYWGQGTLVTVSS VL: DIQMTQSPSSLSASVGDRVTITCRASQSISSYLNWYQQKPGKAPKLLIYAASSLQSGVPSRFSGSGSGTDFTLTISSLQPEDFATYYCQQYYYHYLLTFGQGTKLEIK
2 |  |  |  |  |  |  |  |  |  |  |  |  |  | 1.91 | 1626-1208 (bispecific antibody, Morrison format IgG-scFv) heavy: not shown light: DIQMTQSPSSLSASVGDRVTITCRASQSISSYLNWYQQKPGKAPKLLIYAASSLQSGVPSRFSGSGSGTDFTLTISSLQPEDFATYYCQQGTGYGPLTFGQGTKLEIKRTVAAPSVFIFPPSDEQLKSGTASVVCLLNNFYPREAKVQWKVDNALQSGNSQESVTEQDSKDSTYSLSSTLTLSKADYEKHKVYACEVTHQGLSSPVTKSFNRGEC
3 |  |  |  |  |  |  |  |  |  |  |  |  |  | 0.4 | 1626-1210 (bispecific antibody, Morrison format IgG-scFv) heavy: not shown light: DIQMTQSPSSLSASVGDRVTITCRASQSISSYLNWYQQKPGKAPKLLIYAASSLQSGVPSRFSGSGSGTDFTLTISSLQPEDFATYYCQQGTGYGPLTFGQGTKLEIKRTVAAPSVFIFPPSDEQLKSGTASVVCLLNNFYPREAKVQWKVDNALQSGNSQESVTEQDSKDSTYSLSSTLTLSKADYEKHKVYACEVTHQGLSSPVTKSFNRGEC
